Target: EcoSSB (Escherichia coli, UniProt P0AGE0)
Assay: EMSA; Complex I at low and Complex II at high SSB; 0.2, 2, 10 pmol tetramer, 1 pmol DNA; 20 mM Tris-HCl pH 8.0, 50 mM NaCl, 5% glycerol, 50 μg/ml BSA, 15 μl, 30 min at 4°C; 8% native PAGE in 1x TBE
Conditions: protein: recombinant; chain copies: 4; label: 5' 32P; single strand

Chain of EcoSSB (P0AGE0 whole entry): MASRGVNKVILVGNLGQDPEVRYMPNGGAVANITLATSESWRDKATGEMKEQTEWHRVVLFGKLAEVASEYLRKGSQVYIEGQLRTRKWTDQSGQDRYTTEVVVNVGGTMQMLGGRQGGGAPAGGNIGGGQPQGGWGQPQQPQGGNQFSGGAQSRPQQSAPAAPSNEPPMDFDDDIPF

B1: 79 mer ssDNA (ssDNA)
DNA: GCACTAGTGCGGATAGCCCCGTGTTGTTGTCTGACCCCCGACCCCGACGGCAATGCGGGGCAATCCCCTGGAGGCCTGC
B1: binds.

From publication PMC3983218
